assay: yeast display, Sf9 membrane polyspecificity reagent, FACS + sequencing; frameworks hold sequencing errors
In short: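 Sorting gates, low and high (top ~1%), were placed on anti-HA fluorescence to track expression and on streptavidin fluorescence to track reagent binding. A clone's polyreactivity label is taken from the gate it came out of. The reagent was 10% biotinylated, detergent-solubilized Sf9 membrane, applied for 1 hour at 4 °C to galactose-induced yeast display cells.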

Sequence	polyreactivity (PSR sort gate)
QVQLVESGGGLVQAGGSLRLSCAASGSTFGPYAMGWYRQAPGKERELVAAISSRGARTYYADSVKGRFTISRDNAKNTVYLQMNSLKPEDTAVYYCANTYHGTAYDYWGQGTQVTVSS	high polyreactivity
QVQLVESGGGLVQAGGSLRLSCAASGSTFGPYAMGWYRQAPGKERELVADISGGSTNYADSVKGRFTISRDNAKNTVYLQMNSLKPEDTAVYYGAADSYPAYLGFVGFDYWGQGTQVTVSS	low polyreactivity
QVQLVESGGGLVQAGGSLRLSCAASGSTFGPYAMGWYRQAPGKERELVAVITTSGSTNYADSVKGRFTISRDNAKNTVYLQMNSLKPEDTAVSYCAARYRYYGTNRYYYWGQGTQVTVSS	high polyreactivity
QVQLVESGGGLVQAGGSLRLSCAASGSTFGPYTMGWYRQAPGKERELVATISSGGSTYYADSVKGRFTISRDNAKNTVYLQMNSLKPEDTAVYYCARDSYWEMDYWGQGTQVTVSS	low polyreactivity
QVQLVESGGGLVQAGGSLRLSCAASGSTFGQNAMGWYRQAPGKERELVAAITRRGVSTYYADSVKGRFTISRDNAKNTVYLQMNSLKPEDTAVYYCAKRYHPNSPYDYWGQGTQVTVSS	low polyreactivity
QVQLVESGGGLVQAGGSLRLSCAASGSTFGQYVMGWYRQAPGKERELVAAISSADSTNYADSVKGRFTISRDNAKNTVYLQMNSLKPEDTAVYYCAAARRPTYWPVYPYFGYEYWGQGTQVTVSS	low polyreactivity
QVQLVESGGGLVQAGGSLRLSCAASGSTFGRNALGWYRQAPGKERELVASISWGGGSTYYADSVKGRFTISRDNSKNTVYLQMNSLKTEDTAVYYCNARRFLWSQLSGSFSYDYWGQGTQVTVSS	high polyreactivity
QVQLVESGGGLVQAGGSLRLSCAASGSTFGRNAMGWYRQAPGKERELVAAINWSDGSTHYADSVKGRFTISRDNAKNTVYLQMNSLKPEDTAVYYCGADAWSWPVDYNYWGQGTQVTVSS	low polyreactivity
QVQLVESGGGLVQAGGSLRLSCAASGSTFGRNTMGWYRQAPGKERELVAAITSCDTTTYADSVKGRFTISLDNAKNTVYIQMNSLKPEDTAVYYCAVDPVRGLDYSWMDYWGQGTQVTVSS	low polyreactivity
QVQLVESGGGLVQAGGSLRLSCAASGSTFGRYAMGWYRQAPGKERELVAAIDWSGGSTYYADSVKGRFTISRDNAKNTVYLQMNSLKPEDTAVYYCAAEAYSQYRTPGFDYYYWGQGTQVTVSS	high polyreactivity
QVQLVESGGGLVQAGGSLRLSCAASGSTFGRYAMGWYRQAPGKERELVAAISKSGGSTYYADSVKGRFTISRDNEKNTVYLQMNSLNPEDTAVYYCAATTTRYSYEYWGQGTQVTVSS	low polyreactivity
QVQLVESGGGLVQAGGSLRLSCAASGSTFGRYAMGWYRQAPGKERELVAAITRSGGRTYYADSVKGRFTISRDNAKNTVYLQLNSLKPEDTAVYYCAAVGNLYYTSHWQYDYWGQGTQVTVSS	high polyreactivity
QVQLVESGGGLVQAGGSLRLSCAASGSTFGSNAMGWYRQAPGKEREWVAAISWTGGSTYYADSVKGRFTISRDKAKNPVYVHMNSLKPEETAVYYCNDYGYGYPLYRYDYWGQGTQVTVSS	low polyreactivity
QVQLVESGGGLVQAGGSLRLSCAASGSTFGSNAMGWYRQAPGKESELVAAIRWSGGSTYYADSVKGRFTISRDNAKNTVYLQMNSLKPEDTAVYYCNAVYGRQYRGYNYKYYYWGQGTQVTVSS	high polyreactivity
QVQLVESGGGLVQAGGSLRLSCAASGSTFGSYAMGWYRHAPGKERELVAAINGGSSTNYADSVKGRFTISRDNAKNTVYLQMNSLKPEDTAVYYCNATETHRLYDSWGQGTQVTVSS	low polyreactivity
QVQLVESGGGLVQAGGSLRLSCAASGSTFGSYAMGWYRQAPGKERELVAAISGRGGRTSYADSVKGRFTISRDNAKNTVYLQMNSLKPQDTAVYYCAAKRGGLGVTAASLYDYYFWGQGTQVTVSS	high polyreactivity

Sequence	polyreactivity (PSR sort gate)
QVQLVESGGGLVQAGGSLRLSCAASGSTFGSYAMGWYRQAPGKERELVAAITASGGSTYYADSVKGRFTISRDNGKNTVYLQMKSLKPEDTAVYYCAADTTYIPLSIEYDYWGQGTQVTVSS	low polyreactivity
QVQLVESGGGLVQAGGSLRLSCAASGSTFGSYAMGWYRQAPGKERELVAAITTSGSSTYYADSVKGRFTISRDNAKNTVYLQMNSLKPEDTAVYYCNARPRRLSYSSYNYWGQGTQVTVSS	high polyreactivity
QVQLVESGGGLVQAGGSLRLSCAASGSTFGTYAMGWYRQAPGKERELVAAITRSGGSTYYADSVKGRFTISRDNAKNTVYLQKNSLKPEDTAVYYCAKYVFSYPQSYAYYYWGHGTQVTVSS	high polyreactivity
QVQLVESGGGLVQAGGSLRLSCAASGSTFGTYAMGWYRQAPGKERELVAAITRSGGSTYYADSVKGRFTISRDNAKNTVYLQMNSLKPEDTAVYYCAAVSKGYYYWGQGTQVTVSS	high polyreactivity
QVQLVESGGGLVQAGGSLRLSCAASGSTFGTYAMGWYRQAPGKERELVATITRRGGRTYYADSVKGRFTISRDNAKNTVYLQMNSLKPEDTAVYYCNAVVRQQGAYDYWGQGTQVTVSS	high polyreactivity
QVQLVESGGGLVQAGGSLRLSCAASGSTFGTYVMGWYRQAPGKERELVAAITYSGGSTYYADSVTGRFTISRDNAKNTVYLQMNSLKPEDTAVYYCNADVWSYWYKFDYWGQGTQVTVSS	high polyreactivity
QVQLVESGGGLVQAGGSLRLSCAASGSTFGVNAMGWYRQAPGKERELVAAISWSGGSTYYADSVKGRFTISRDNAKNTVYLQMNSLKPEDTAVYYCAADFDYGIWGRYEYWGQGTQVTVSS	high polyreactivity
QVQLVESGGGLVQAGGSLRLSCAASGSTFGVNAMVWYRQAPGKERELVAGISVDDSTTYYADSVKGRFTISRDNAKNTVYLQMNSLKPEDTAVYYCAAEREKTLYYLSRFDYWGQGTQVTVSS	low polyreactivity
QVQLVESGGGLVQAGGSLRLSCAASGSTFGVNVMGWYRQAPGKERELVAAISRSGGRTYYADSVKGRFTISRDNAKNTVYLQMNSLKPEDTAVYYCNTRGYDYWGQGTQVTVSS	high polyreactivity
QVQLVESGGGLVQAGGSLRLSCAASGSTFGVYAMGWYRQAPGKERELVAAISWSSGSTYYADSVKGRFTISRDNAKNTVYLQLNSLKPEDTAVYYCNKDVYGYYRTGPRGYDYWGQGTQVTVSS	high polyreactivity
QVQLVESGGGLVQAGGSLRLSCAASGSTFGVYTMGWYIQAPGKERELVAAITKSGGSTYYADSVKGRFTISRDNAKNTVYLQMNSLKPEDTAVYYCNTDYGRYLYYRYGYWGQGTQVTVSS	low polyreactivity
QVQLVESGGGLVQAGGSLRLSCAASGSTFGWNAMGRYRQAPGKERELVAAISSSGGSTNYADSVKGRFTISRDNAKNTVYLQMTSLKPEDTAVYYCAKARRPGYGYGYWGQGTQLTVSS	low polyreactivity
QVQLVESGGGLVQAGGSLRLSCAASGSTFGWYAMGWYRQAPGKERELVAAISYIGGSTYADSVKGRFTISRDNAKNTVYLQMKSLKPEDTAVYYCNAVVYGKSYGSRIYDYWGQGTQVTVSS	high polyreactivity
QVQLVESGGGLVQAGGSLRLSCAASGSTFGWYAMGWYRQAPGKERELVAAITSVGSTYYADYVKGRFTISRDNAKNTVYLQMNSLKPEDTAVYYCANRFGYGWAWFGYWGQGTQVTVSS	low polyreactivity
QVQLVESGGGLVQAGGSLRLSCAASGSTFGWYAMVWYRQAPGKERELVAAIRNNDGRTYYADSVKGRFTISRDNAKNTVYLQMNSLKPEDTAVYYCNADYRSHYLYDYWGQGTQVTVSS	low polyreactivity
QVQLVESGGGLVQAGGSLRLSCAASGSTFGYAMGWYRQAPGKERELVAAITSTGGSTYYADSVKGRFTISRDNAKNTVYLQKNSLKPEDTAVYDCAADAYWIRSRFLYRMRSNSWGQGTQVTVSS	high polyreactivity
